# Positions count from the first letter of the chain named.
# B1: ADI-42178 (antibody, V domains shown)
# VH: EVQLVESGGGVIQPGRSLRLSCAASGFNFSSYGMHWVRQAPGKGLEWVAVISYDGSNKYYADSVKGRFTISRDNSKNTLYLQMNSLRAEDTAVHYCAKAYDSRGYYYLDYWGQGTLVTVSS
# VL: DIQLTQSPSTLSASVGDRVTITCRASQSISDWLAWFQQKPGKAPKLLIYRASGLETGVPSRFSGSGSGTEFTLTISSLQPDDFATYYCQQYNRYSYTFGQGTKVEIK
# notes: full-length IgG
# B2: ADI-49032 (antibody, V domains shown)
# VH: EVQLVQSGGGLVQPGGSLRLSCVGSGLTLSSSAMSWVRQAPGKGLECVSGITGSGSDSSYAASVKGRFTISRDNSKNTVYLQMNSLRAEDTAVYYCAKDLTHRLGSIFGKLTFDAFDIWGPGTMVTVSS
# VL: DIRLTQSPSTLSASVGDRVTITCRASQSISGWLAWYQQKPGKAPKLLIYKASILESGVPSRFSGSQSGTEFTLTISSLQPDDFATYYCQQYNNFWTFGQGTKLEIK
# notes: full-length IgG; also called Antibody Number 119
# B3: ADI-48969 (antibody, V domains shown)
# VH: QVTLKESGGALVKPAGSLTLSCAASGFTFGDYYMSWIRQAPGKGLEWISYISSSGSSIYYTDSVRGRFTISRDNARNSLYLQMNSLRVEDTAVYYCAREFSSRPFDLWGQGTLVTVSS
# VL: QSVLTQPRSVSGSPGQSVTISCTGTSSDVGAYNFVSWYQQYPGKAPKLMIYDVNKRPSGVPDRFSGSKSGNTASLTISGLQAEDEADYHCCSYAGTYTSNYVFGSGTKVTVL
# notes: full-length IgG; also called Antibody Number 12
# B4: ADI-50197 (antibody, V domains shown)
# VH: EVQLVESGGGVVQPGRSLRLSCAASGFTFSSYGMHWVRQAPGKGPEWVAVISEDGNKDHYVDSVKGRFSIYRDNSKSTVFLRMTSLRAEDTAVYYCAKDLTPYFYDSGAFDHWGQGTLVTVSS
# VL: QSVLTQPPSVSGAPGQRVTISCTGNSSNIGAGYEVHWYQQLPGTAPKLLIYGNNNRPSGVPDRFSGSKSGASGSLAVTGLRAEDEADYYCHSYDSNMSGSVFGGGTKVTVL
# notes: full-length IgG; also called Antibody Number 120
# B5: ADI-48894 (antibody, V domains shown)
# VH: EVQLVESGGGLVQPGGSLRLSCAVSGFTFSDHYMDWVRQAPGKGLEWVGRSRNKVNSYITEYAASVKGRFSISRDDSKNSLYLQMNSLKIEDTAVYYCARVFGGPTDYWGQGTLVTVSS
# VL: EIVLTQSPSSLSASVGDRVTITCRASQGISNYLAWYQQKPGKAPKLLIYAASTLQSGVPSRFSGSGSGTDFILTISSLQPEDVATYYCQKYYSAPLITFGPGTKVEIK
# notes: full-length IgG
# B6: ADI-42226 (antibody, V domains shown)
# VH: EVQLLESGGGLVQPGGSLRLSCAASGFIFSDHYMDWVRQAPGKGLEWVGRIRNKPNSYTTDYAAYVKGRFSISRDDSKNSLFLQMNSLKTEDTAVYYCARVVNGLDVWGQGTTVTVSS
# VL: SYELTQPPSVSVSPGQTARITCSGDALPKQYAYWYQQKPGQAPVLVIYKDTERPSGIPERFSGSSSGTTVTLTISGVQAEDEADYYCQSADSSVADSSVVFGGGTKLTVL
# notes: full-length IgG
# B7: ADI-49037 (antibody, V domains shown)
# VH: EVQLVESGGGVVQPGRSLRLSCAASGFTLSSYVMHWVRQAPGKGLEWVAVISSDGTNKYYADSVKGRFTISRDSSKNTLYLQMNSLRPEDSAVYYCARGQPDYWGQGTLVTVSS
# VL: EIVLTQSPATLSLSPGERATLSCRASQSVSNYFAWYQQKPGQAPRLLIYGASNRATGVPARFSGSGSGTDFTLTISSLEPEDFAVYYCQQRSNWPYTFGQGTKVEIK
# notes: full-length IgG
# B8: ADI-46739 (antibody, V domains shown)
# VH: EVQLVESGPGLVKPSGTLSLTCAVSGGSISSDNWWSWVRQAPGKGLEWIGEIYHTGSTSYNPSLKSRVTISLDKSKNHFSLKLNSLTAADTAVYYCAGKKWELLGFRFDPWGQGTLVTVSS
# VL: NFMLTQPPSVSAAPGQKVTISCSGSNSNIGNNFVSWYQQLPGTAPKLLIYDNNERPSGIPDRFSGSKSVTSATLGITGLQTGDEADYYCGTWDNSLGMVVFGGGTKLTVL
# notes: full-length IgG; also called Antibody Number 124
# B9: ADI-42810 (antibody, V domains shown)
# VH: QVQLVESGAEEKKPGASVKVSCKASGYTFTSYAMHWVRQAPGQRLEWMGWINAGNGNTKYSQKFQGRVTITRDTSASTAYMELSSLRSEDTAVYYCARQWLGHFDYWGQGTLVTVSS
# VL: QSALTQPASVSGSPGQSITISCTGTSSDVGGYNYVSWYQQHPGKAPKLMIYEVSNRPSGVSNRFSGSKSGNTASLTISGLQAEDEADYYCSSYTSSSTYVFGTGTKVTVL
# notes: full-length IgG
# B10: ADI-49137 (antibody, V domains shown)
# VH: EVQLVESGGGLVQPGGSLRLSCAASGFIFSDHYMAWVRQAPGKGLEWVGHVGNKANTYTTEYAASVKGRFTISRDDSKKSLYLQMNRLKSEDTAVYYCARVFSYYLDYWGQGTPVTVSS
# VL: EIVLTQSPGTLALSPGERATLSCRASQSVSSYLAWYQQKPGQAPRLLIYDSSNRATGIPARFSGSGSGTDFTLTISSLEPEDFAVYYCQQPGNWPPAFTFGGGTKLEIK
# notes: full-length IgG; also called Antibody Number 126
# B11: ADI-42817 (antibody, V domains shown)
# VH: QVTLKESGPTLVKPTQTLTLTCTFSGFSLSTSGVGVGWTRQPPGKALEWLALIYWDDDKRYSPSLKSRLTITKDTSKNQVVLTMTKMDPVDTATYYCAHRHIAARLYRDDDVFDVWGQGTMVTVSS
# VL: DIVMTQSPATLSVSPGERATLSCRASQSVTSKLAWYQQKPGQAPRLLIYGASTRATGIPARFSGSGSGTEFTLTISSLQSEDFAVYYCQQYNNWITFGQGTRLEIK
# notes: full-length IgG
# B12: ADI-50218 (antibody, V domains shown)
# VH: QVQLVQSGAEVKKPGASVKVSCKASGYTFTSYDINWVRQATGQGLEWMGWMNPNSGNTGYAQKFQGRVTMTRNTSISTAYMELSSLRSEDTAVYYCARGLNTVTNSDYWGQGTLVTVSS
# VL: DIQLTQSPSSVSASVGDRVTITCRASQGISSWLAWYQQKPGKAPKLLIYAASSLQSGVPSRFSGSGSGTDFTLTISSLQPEDFATYYCQQANSFPWTFGQGTKVDIK
# notes: full-length IgG; also called Antibody Number 128
# B13: ADI-48900 (antibody, V domains shown)
# VH: EVQLQESGPGLVKPSGTLSLTCAVSGGSISSSDWWSWVRQPPGKGLEWIGEIYHSGSTSYNPSVKSRVSISVDKSKNQFSLQLSSVTAADTAIYYCARVNPPQYSSGWYSVYWGQGTLVTVSS
# VL: QSVVTQPPSVSAAPGQKVTISCSGSSSNIGNNYVSWYQQLSETAPKLLIYDNNKRPSGIPNRFSGSKSGTSATLGITGLQTGDEADYYCGTWDNSLGAVVFGGGTKVTVL
# notes: full-length IgG; also called Antibody Number 13
# B14: ADI-42186 (antibody, V domains shown)
# VH: QVQLQQSGPGLVKPSQTLSLTCAISGDSVSTNSAAWNWIRQSPSRGLEWLGRTYYRSKWYNDYALSVKSRITIKPDTSKNQFSLQLNSVTPEDTAVYYCAREGAGYYDSSGYYPLSYDAFDIWGRGTMVTVSS
# VL: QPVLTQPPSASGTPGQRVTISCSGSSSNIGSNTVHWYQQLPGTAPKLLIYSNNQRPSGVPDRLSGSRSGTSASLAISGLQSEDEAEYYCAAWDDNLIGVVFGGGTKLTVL
# notes: full-length IgG; also called Antibody Number 130
# B15: ADI-48890 (antibody, V domains shown)
# VH: EVQLVESGGGLVQPGGSLRLSCAASGFTFSDHYMDWVRQAPGKGLEWVGRARNRANSYTTEYAASVKGRFAASRDDSKNSLYLQMNSLKTEDTAVYYCARVRGSYWDYWGQGTLVTVSS
# VL: QSALTQPPSASGSPGQSVTISCTGTSSDVGGYNYVSWYQQHPGKAPKLMIYEVSKRPSGVPDRFSGSKSGNTASLTVSGLQAEDEADYYCSSFAGSNNLYVFGTGTKVTVL
# notes: full-length IgG
# B16: ADI-42206 (antibody, V domains shown)
# VH: QVQLVQSGGGLVQPGGSLRLSCAASGFTFSDHYMDWVRQAPGKGLEWVGRIRNKVNSYTTEYAASVKGRFTISRDDSKNSLYLQMNSLKTEDTAVYYCGRDRGWLDIWGQGTMVTVSS
# VL: B9 VL with A3V, E52D, S54T, K68R, S95R, Y99R, T103G, V107L
# notes: full-length IgG; also called Antibody Number 132
# Target: T1, recombinant YFV E protein (soluble E, sE; YFV Asibi strain) (Yellow fever virus, Asibi strain, UniProt Q6DV88 286-678)
# T1 construct: also called YFV E antigen; YFV E monomer
# Experiment: BLI monovalent (IgG on tip)
# T1 sequence (Q6DV88 286-678): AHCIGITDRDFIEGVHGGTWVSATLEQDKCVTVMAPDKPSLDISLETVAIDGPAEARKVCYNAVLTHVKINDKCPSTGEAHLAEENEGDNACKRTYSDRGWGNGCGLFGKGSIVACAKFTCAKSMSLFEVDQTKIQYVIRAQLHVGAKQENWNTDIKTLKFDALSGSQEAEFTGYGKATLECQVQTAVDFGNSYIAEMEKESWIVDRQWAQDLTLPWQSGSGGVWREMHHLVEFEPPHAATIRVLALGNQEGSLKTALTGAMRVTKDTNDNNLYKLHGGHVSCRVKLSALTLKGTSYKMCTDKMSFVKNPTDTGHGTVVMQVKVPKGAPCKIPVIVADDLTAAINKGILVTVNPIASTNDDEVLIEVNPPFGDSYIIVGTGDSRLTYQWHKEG
row,Binder,Kd [nM]
1,B1,34.4
2,B2,0.486
3,B3,5.86
4,B4,> 100
5,B5,95.6
6,B6,0.843
7,B7,3.53
8,B8,> 100
9,B9,> 100
10,B10,0.854
11,B11,4.15
12,B12,> 100
13,B13,26.2
14,B14,1.21
15,B15,> 100
16,B16,1.73
